Three variants from IntAct's records for PubMed 25860027 can be followed below.

To fix the notation:
B1: Ras-related protein Rab-8A (Canis familiaris (dog)), P61007 (parent)
chain: MAKTYDYLFKLLLIGDSGVGKTCVLFRFSEDAFNSTFISTIGIDFKIRTIELDGKRIKLQIWDTAGQERFRTITTAYYRGAMGIMLVYDITNEKSFDNIRNWIRNIEEHASADVEKMILGNKCDVNDKRQVSKERGEKLALDYGIKFMETSAKANINVENAFFTLARDIKAKMDKKLEGNSPQGSNQGVKITPDQQKRSSFFRCVLL
partner: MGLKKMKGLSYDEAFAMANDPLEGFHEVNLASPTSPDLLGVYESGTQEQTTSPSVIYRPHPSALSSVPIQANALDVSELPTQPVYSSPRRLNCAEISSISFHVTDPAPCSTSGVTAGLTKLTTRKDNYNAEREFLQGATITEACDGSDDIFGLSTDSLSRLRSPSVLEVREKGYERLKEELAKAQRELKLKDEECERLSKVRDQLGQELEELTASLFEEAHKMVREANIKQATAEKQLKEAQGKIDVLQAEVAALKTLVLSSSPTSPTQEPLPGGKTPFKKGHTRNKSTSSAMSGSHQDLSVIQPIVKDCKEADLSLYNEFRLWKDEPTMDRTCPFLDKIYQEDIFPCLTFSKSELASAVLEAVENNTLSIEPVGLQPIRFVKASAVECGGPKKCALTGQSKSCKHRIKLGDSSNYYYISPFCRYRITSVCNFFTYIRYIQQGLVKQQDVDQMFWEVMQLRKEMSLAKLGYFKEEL
B2: Ras-related protein Rab-8A (Canis familiaris (dog)), P61007 (parent)
chain: B1 chain
partner: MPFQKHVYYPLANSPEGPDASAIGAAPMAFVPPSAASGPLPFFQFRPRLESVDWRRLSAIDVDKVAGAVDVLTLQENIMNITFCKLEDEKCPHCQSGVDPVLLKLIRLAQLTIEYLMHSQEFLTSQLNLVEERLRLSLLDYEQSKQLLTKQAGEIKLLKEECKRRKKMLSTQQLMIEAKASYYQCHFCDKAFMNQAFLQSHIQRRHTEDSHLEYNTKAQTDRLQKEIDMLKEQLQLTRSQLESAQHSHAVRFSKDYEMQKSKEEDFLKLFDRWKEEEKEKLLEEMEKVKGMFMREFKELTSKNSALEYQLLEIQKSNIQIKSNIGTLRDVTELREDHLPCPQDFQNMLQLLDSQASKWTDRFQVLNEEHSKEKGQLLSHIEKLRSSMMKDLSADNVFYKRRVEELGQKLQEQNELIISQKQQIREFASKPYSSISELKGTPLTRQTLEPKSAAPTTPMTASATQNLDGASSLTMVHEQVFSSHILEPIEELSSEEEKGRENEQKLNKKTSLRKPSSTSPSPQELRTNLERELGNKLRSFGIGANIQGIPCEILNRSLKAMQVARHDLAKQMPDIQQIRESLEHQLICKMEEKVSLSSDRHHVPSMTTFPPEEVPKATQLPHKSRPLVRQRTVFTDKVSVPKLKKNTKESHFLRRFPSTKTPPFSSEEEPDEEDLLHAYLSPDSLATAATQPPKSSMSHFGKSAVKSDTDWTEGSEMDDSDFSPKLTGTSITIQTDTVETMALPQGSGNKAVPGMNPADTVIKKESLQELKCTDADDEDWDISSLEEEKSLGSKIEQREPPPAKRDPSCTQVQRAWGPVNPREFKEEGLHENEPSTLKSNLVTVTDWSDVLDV

In the first test the parent is B1. The note with it: with rab3i_human RAB3IP.
As for MAKTYDYLFKLLLIGDSGVGKNCVLFRFSEDAFNSTFISTIGIDFKIRTIELDGKRIKLQIWDTAGQERFRTITTAYYRGAMGIMLVYDITNEKSFDNIRNWIRNIEEHASADVEKMILGNKCDVNDKRQVSKERGEKLALDYGIKFMETSAKANINVENAFFTLARDIKAKMDKKLEGNSPQGSNQGVKITPDQQKRSSFFRCVLL [T22N], the “effect of a mutation on the interaction” value is recorded as “increasing interaction strength”.

Variants of B2 are the subject of a further test. The settings on record: with Dzip1, Q8BMD2-1.
Turning to MAKTYDYLFKLLLIGDSGVGKTCVLFRFSEDAFNSTFISTIGIDFKIRTIELDGKRIKLQIWDTAGLERFRTITTAYYRGAMGIMLVYDITNEKSFDNIRNWIRNIEEHASADVEKMILGNKCDVNDKRQVSKERGEKLALDYGIKFMETSAKANINVENAFFTLARDIKAKMDKKLEGNSPQGSNQGVKITPDQQKRSSFFRCVLL [Q67L], the “effect of a mutation on the interaction” value is “disrupting interaction strength”.

As to MAKTYDYLFKLLLIGDSGVGKNCVLFRFSEDAFNSTFISTIGIDFKIRTIELDGKRIKLQIWDTAGQERFRTITTAYYRGAMGIMLVYDITNEKSFDNIRNWIRNIEEHASADVEKMILGNKCDVNDKRQVSKERGEKLALDYGIKFMETSAKANINVENAFFTLARDIKAKMDKKLEGNSPQGSNQGVKITPDQQKRSSFFRCVLL [T22N], the “effect of a mutation on the interaction” value was “increasing interaction strength”.
